# Molecular target: His-vimentin, purified recombinant, polymerized (UniProt P08670)
# Assay: co-sedimentation
# Sequence of His-vimentin, purified recombinant, polymerized (P08670 whole entry): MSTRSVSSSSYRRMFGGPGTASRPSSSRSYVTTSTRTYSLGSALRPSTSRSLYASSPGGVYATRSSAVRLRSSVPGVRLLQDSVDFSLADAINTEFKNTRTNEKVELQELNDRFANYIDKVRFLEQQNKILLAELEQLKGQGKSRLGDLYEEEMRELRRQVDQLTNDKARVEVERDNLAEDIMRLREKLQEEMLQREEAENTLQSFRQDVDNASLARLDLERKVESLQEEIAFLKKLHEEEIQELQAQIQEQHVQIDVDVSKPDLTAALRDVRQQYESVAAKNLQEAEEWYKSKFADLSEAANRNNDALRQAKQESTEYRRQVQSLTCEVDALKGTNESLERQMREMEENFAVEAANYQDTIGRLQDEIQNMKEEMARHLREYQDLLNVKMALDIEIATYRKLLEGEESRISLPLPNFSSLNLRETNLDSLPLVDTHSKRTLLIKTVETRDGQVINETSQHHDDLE
substance,measurement,value
"adenomatous polyposis coli (APC), endogenous in rat primary astrocytes, P70478 1-2842",percent of total APC cosedimented,18.5%

# Source: publication PMC3563686
